A word on the Kd: it is the constant that tells how readily two partners part at equilibrium.

Kd data for 1 molecule are collected here from patent publication US11857601 (dated 2024).

This assay has as its target Human CTLA-4/CD152, His tag (Sino Biological, Cat: 11159-H08H) (human, UniProt P16410 36-162). In words: BLI.

Sequence of Human CTLA-4/CD152, His tag (Sino Biological, Cat: 11159-H08H) (P16410 36-162): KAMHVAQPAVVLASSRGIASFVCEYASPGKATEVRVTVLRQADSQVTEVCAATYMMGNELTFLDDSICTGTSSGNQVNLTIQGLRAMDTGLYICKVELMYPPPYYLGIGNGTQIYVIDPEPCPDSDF

B1: GI101C1 (hCD80-Fc) (Fc fusion)
chain: VIHVTKEVKEVATLSCGHNVSVEELAQTRIYWQKEKKMVLTMMSGDMNIWPEYKNRTIFDITNNLSIVILALRPSDEGTYECVVLKYEKDAFKREHLAEVTLSVKADFPTPSISDFEIPTSNIRRIICSTSGGFPEPHLSWLENGEELNAINTTVSQDPETELYAVSSKLDFNMTTNHSFMCLIKYGHLRVNQTFNWNTTKQEHFPDNGSGGGGSGGGGSGGGGSAESKYGPPCPPCPAPEAAGGPSVFLFPPKPKDQLMISRTPEVTCVVVDVSQEDPEVQFNWYVDGVEVHNAKTKPREEQFNSTYRVVSVLTVLHQDWLNGKEYKCKVSNKGLPSSIEKTISKAKGQPREPQVYTLPPSQEEMTKNQVSLTCLVKGFYPSDIAVEWESNGQPENNYKTTPPVLDSDGSFFLYSRLTVDKSRWQEGNVFSCSVLHEALHNHYTQKSLSLSLG
Consider B1, for which the Kd was determined as 3.2 nM.
